{"source": "paper PMC12657314", "about": "“Structural modeling and biochemical characterization of MSMEG_0748, a MoxR ATPase from Mycobacterium smegmatis” (Computational and Structural Biotechnology Journal, 2025)", "proteins": {"B1": {"name": "MSMEG_0748 (Mycolicibacterium smegmatis MC2 155) (protein)", "chain": "MRMAAEPGAAVTGFGGVDDVVRRFDAHDYLLDEGTATAIYLAVSLGRPLLLEGEPGVGKTTAAKTLAAVLGTPLIRLQCYEGLTASEALYDWNYQRQLLSIRLAEARGGEHLDEAALYTESYLVDRPILQCVRHRGPSSPVLLVDEIDRADDEFEALLLEFLGEAAVTVPELGTFVAERPPVVVLTSNRSRDLHDALRRRCLYHWIEYPQRAQAVAIVRRTVPGATDALIDSAVQFVSAARELDLDKPPGVAETIDWVAALVALRVGDLVDPAALGTLGALAKTPDDSGLMRDALLDLTN", "notes": "full length, N-terminal His-tag cut off by rTEV protease, expressed in E. coli BL21(DE3)"}, "B2": {"name": "MSMEG_0748 (Mycolicibacterium smegmatis MC2 155; E146Q) (protein)", "chain": "MRMAAEPGAAVTGFGGVDDVVRRFDAHDYLLDEGTATAIYLAVSLGRPLLLEGEPGVGKTTAAKTLAAVLGTPLIRLQCYEGLTASEALYDWNYQRQLLSIRLAEARGGEHLDEAALYTESYLVDRPILQCVRHRGPSSPVLLVDQIDRADDEFEALLLEFLGEAAVTVPELGTFVAERPPVVVLTSNRSRDLHDALRRRCLYHWIEYPQRAQAVAIVRRTVPGATDALIDSAVQFVSAARELDLDKPPGVAETIDWVAALVALRVGDLVDPAALGTLGALAKTPDDSGLMRDALLDLTN", "notes": "as for B1"}, "B3": {"name": "MSMEG_0748 (MoxR-type AAA+ ATPase from Mycobacterium smegmatis mc2 155), recombinant, tag-cleaved (enzyme, UniProt A0QQG6 1-300, looked up)", "chain": "MRMAAEPGAAVTGFGGVDDVVRRFDAHDYLLDEGTATAIYLAVSLGRPLLLEGEPGVGKTTAAKTLAAVLGTPLIRLQCYEGLTASEALYDWNYQRQLLSIRLAEARGGEHLDEAALYTESYLVDRPILQCVRHRGPSSPVLLVDEIDRADDEFEALLLEFLGEAAVTVPELGTFVAERPPVVVLTSNRSRDLHDALRRRCLYHWIEYPQRAQAVAIVRRTVPGATDALIDSAVQFVSAARELDLDKPPGVAETIDWVAALVALRVGDLVDPAALGTLGALAKTPDDSGLMRDALLDLTN", "notes": "MSMEG_0748, MoxR-type AAA+ ATPase, Mycobacterium smegmatis mc2 155, UniProt A0QQG6; amplified from genomic DNA into pProEX-HTa; full-length protein of about 32.7 kDa after removal of the His tag by rTEV protease; also called wild-type MSMEG_0748; MoxR ATPase; source: E. coli BL21(DE3), purified (Ni-NTA, TEV cleavage, second Ni-NTA, SEC on Superdex 200); not shown: His-tag, N-terminal, cleaved"}}, "key": {"purified protein": {"substrate": "Nc1ncnc2c1ncn2[C@@H]1O[C@H](COP(=O)(O)OP(=O)(O)OP(=O)(O)O)[C@@H](O)[C@H]1O", "test": "purified protein", "format": "biochemical, Mycolicibacterium smegmatis", "settings": "50 mM Tris-HCl pH 8.0, 150 mM KCl, 2 mM MgCl2, 2 mM DTT, 30 °C, 200 nM protein"}, "[1]": {"target": "the molecule itself", "test": "SEC-MALS; Superdex 200 Increase 10/300 GL, 5 mg/mL protein injected, 20 mM Tris-HCl pH 7.5, 300 mM NaCl, 0.5 mM TCEP, flow 0.5 mL/min; DAWN Heleos II detector"}}}
{"protein": "B1", "values": [{"measurement": "Km", "setting": "purified protein", "value": 0.6951, "unit": "µM"}, {"measurement": "kcat", "setting": "purified protein", "value": 0.0251, "unit": "S^−1"}]}
{"protein": "B2", "values": [{"measurement": "Km", "setting": "purified protein", "value": 0.9024, "unit": "µM"}, {"measurement": "kcat", "setting": "purified protein", "value": 0.0189, "unit": "S^−1"}]}
{"protein": "B3", "values": [{"measurement": "stoichiometry N", "setting": "[1]", "value": 6}]}
